As usually defined, the Km is the concentration of substrate that gives half-maximal velocity.

Substrate in this data set: Nc1ncnc2c1ncn2[C@@H]1O[C@H](COP(=O)(O)OP(=O)(O)OP(=O)(O)O)[C@@H](O)[C@H]1O
As to the kind of experiment: purified protein. It counts as biochemical, Saccharomyces cerevisiae. The note with it: 500 nM Pah1 as protein substrate, 10 mM MgCl2, 2 mM DTT, pH 7.5, 30 °C, labelled compound.

B1: Hsl1 (Saccharomyces cerevisiae S288C) (protein)
chain: MTGHVSKTSHVPKGRPSSLAKKAAKRAMAKVNSNPKRASGHLERVVQSVNDATKRLSQPDSTVSVATKSSKRKSRDTVGPWKLGKTLGKGSSGRVRLAKNMETGQLAAIKIVPKKKAFVHCSNNGTVPNSYSSSMVTSNVSSPSIASREHSNHSQTNPYGIEREIVIMKLISHTNVMALFEVWENKSELYLVLEYVDGGELFDYLVSKGKLPEREAIHYFKQIVEGVSYCHSFNICHRDLKPENLLLDKKNRRIKIADFGMAALELPNKLLKTSCGSPHYASPEIVMGRPYHGGPSDVWSCGIVLFALLTGHLPFNDDNIKKLLLKVQSGKYQMPSNLSSEARDLISKILVIDPEKRITTQEILKHPLIKKYDDLPVNKVLRKMRKDNMARGKSNSDLHLLNNVSPSIVTLHSKGEIDESILRSLQILWHGVSRELITAKLLQKPMSEEKLFYSLLLQYKQRHSISLSSSSENKKSATESSVNEPRIEYASKTANNTGLRSENNDVKTLHSLEIHSEDTSTVNQNNAITGVNTEINAPVLAQKSQFSINTLSQPESDKAEAEAVTLPPAIPIFNASSSRIFRNSYTSISSRSRRSLRLSNSRLSLSASTSRETVHDNEMPLPQLPKSPSRYSLSRRAIHASPSTKSIHKSLSRKNIAATVAARRTLQNSASKRSLYSLQSISKRSLNLNDLLVFDDPLPSKKPASENVNKSEPHSLESDSDFEILCDQILFGNALDRILEEEEDNEKERDTQRQRQNDTKSSADTFTISGVSTNKENEGPEYPTKIEKNQFNMSYKPSENMSGLSSFPIFEKENTLSSSYLEEQKPKRAALSDITNSFNKMNKQEGMRIEKKIQREQLQKKNDRPSPLKPIQHQELRVNSLPNDQGKPSLSLDPRRNISQPVNSKVESLLQGLKFKKEPASHWTHERGSLFMSEHVEDEKPVKASDVSIESSYVPLTTVATSSRDPSVLAESSTIQKPMLSLPSSFLNTSMTFKNLSQILADDGDDKHLSVPQNQSRSVAMSHPLRKQSAKISLTPRSNLNANLSVKRNQGSPGSYLSNDLDGISDMTFAMEIPTNTFTAQAIQLMNNDTDNNKINTSPKASSFTKEKVIKSAAYISKEKEPDNSDTNYIPDYTIPNTYDEKAINIFEDAPSDEGSLNTSSSESDSRASVHRKAVSIDTMATTNVLTPATNVRVSLYWNNNSSGIPRETTEEILSKLRLSPENPSNTHMQKRFSSTRGSRDSNALGISQSLQSMFKDLEEDQDGHTSQADILESSMSYSKRRPSEESVNPKQRVTMLFDEEEEESKKVGGGKIKEEHTKLDNKISEESSQLVLPVVEKKENANNTENNYSKIPKPSTIKVTKDTAMESNTQTHTKKPILKSVQNVEVEEAPSSDKKNWFVKLFQNFSSHNNATKASKNHVTNISFDDAHMLTLNEFNKNSIDYQLKNLDHKFGRKVVEYDCKFVKGNFKFKIKITSTPNASTVITVKKRSKHSNTSSNKAFEKFNDDVERVIRNAGRS
notes: full-length with C-terminal TAP tag kept (chromosomal HSL1-TAP); IgG-Sepharose purified from S. cerevisiae, endogenously phosphorylated; ~190 kDa on gel
In the case of B1, the Km amounted to 31 µM.

(Values after publication PMC11342776, “Protein kinase Hsl1 phosphorylates Pah1 to inhibit phosphatidate phosphatase activity and regulate lipid synthesis in Saccharomyces cerevisiae” (The Journal of Biological Chemistry, 2024).)
